This is an account of results in article PMC11067984.

The target of the test is CaV1.2 truncated at aa 1820, fused to YFP (CaV1.2^Δ1820-YFP) (UniProt P15381).

Substance “Distal C-terminal domain of CaV1.2 fused to Renilla luciferase (DCtermD-RLuc) (domain or fragment)” returned a CDI fraction of CaV1.2^Δ1820 at 0 mV, without versus with DCtermD overexpressed of 0.03.
